Article PMC4043723

Legend:
Assay in all cases: voltammetric sandwich aptasensor
horseradish peroxidase = horseradish peroxidase (horseradish, UniProt P00433 31-338)
[1] = target: prostate-specific antigen (PSA) (UniProt P07288 25-261)
thrombin = thrombin (UniProt P00734;P00734 328-363;364-622)

Measured: binding result

Sequence of prostate-specific antigen (PSA) (P07288 25-261): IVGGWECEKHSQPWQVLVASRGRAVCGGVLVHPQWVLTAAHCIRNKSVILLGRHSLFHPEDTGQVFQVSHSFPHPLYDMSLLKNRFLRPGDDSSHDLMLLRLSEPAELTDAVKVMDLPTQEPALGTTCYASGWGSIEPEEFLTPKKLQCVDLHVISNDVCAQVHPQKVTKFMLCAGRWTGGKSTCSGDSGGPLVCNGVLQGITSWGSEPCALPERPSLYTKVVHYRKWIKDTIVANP
Sequence of horseradish peroxidase (P00433 31-338): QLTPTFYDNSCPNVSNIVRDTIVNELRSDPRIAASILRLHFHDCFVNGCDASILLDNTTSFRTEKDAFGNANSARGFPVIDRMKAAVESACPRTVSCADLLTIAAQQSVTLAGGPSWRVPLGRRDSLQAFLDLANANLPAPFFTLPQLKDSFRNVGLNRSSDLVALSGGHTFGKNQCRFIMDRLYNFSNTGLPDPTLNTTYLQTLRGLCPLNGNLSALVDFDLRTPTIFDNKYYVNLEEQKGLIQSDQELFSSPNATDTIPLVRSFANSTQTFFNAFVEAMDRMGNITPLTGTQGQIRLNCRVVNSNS

GATTGAAAGGTCTGTTTTTGGGGTTGGTTTGGGTCAATA (ssDNA, 5'-SH-(CH2)6) [anti-rHuEPO aptamer (39-base)]
no binding: all assays above
